Measurements: patent CN114685663A (UNIV SOUTHWEST, dated 2022)

Experiments:
[1] = biological target: 肺炎链球菌溶血素 (Pneumolysin O, PLY), recombinant rPLY (肺炎链球菌 (Streptococcus pneumoniae))
[2] = biological target: 李斯特菌溶血素 (Listeriolysin O, LLO), recombinant rLLO (单增李斯特菌 (Listeria monocytogenes))
[3] = biological target: 猪溶素 (Suilysin, SLY), recombinant rSLY (猪链球菌 (Streptococcus suis))
[4] = biological target: T1, rLLO D4 (单增李斯特菌 (Listeria monocytogenes)); experiment: Western blot
T1 construct: also called LLO D4结构域

[5] = biological target: T2, rSLY D4 (猪链球菌 (Streptococcus suis)); experiment: Western blot
T2 construct: also called SLY D4结构域
T2 chain: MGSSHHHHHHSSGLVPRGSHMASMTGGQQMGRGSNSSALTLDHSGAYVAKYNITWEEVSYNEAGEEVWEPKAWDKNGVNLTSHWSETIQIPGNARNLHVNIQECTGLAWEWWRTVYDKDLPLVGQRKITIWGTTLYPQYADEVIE

[6] = biological target: T3, rLLO D1-3 (单增李斯特菌 (Listeria monocytogenes)); experiment: Western blot
T3 construct: also called LLO D1-3结构域
T3 chain: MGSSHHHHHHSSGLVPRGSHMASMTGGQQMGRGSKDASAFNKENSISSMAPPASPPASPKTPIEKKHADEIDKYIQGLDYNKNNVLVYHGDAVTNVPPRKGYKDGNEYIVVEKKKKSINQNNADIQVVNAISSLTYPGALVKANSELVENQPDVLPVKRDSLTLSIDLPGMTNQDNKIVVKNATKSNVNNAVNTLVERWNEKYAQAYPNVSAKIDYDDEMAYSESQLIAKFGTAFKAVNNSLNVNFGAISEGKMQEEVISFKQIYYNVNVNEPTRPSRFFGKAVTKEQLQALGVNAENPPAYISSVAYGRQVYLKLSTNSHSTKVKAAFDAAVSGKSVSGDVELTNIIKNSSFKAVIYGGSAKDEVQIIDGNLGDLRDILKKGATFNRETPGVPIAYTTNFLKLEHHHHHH

B1: 抗胆固醇依赖性细胞溶素的抗体 (antibody, V domains shown)
VH: QVQLQQSGPGLVKPSQTLSLTCAISGDSVSSNSVAWNWIRQSPSRGLEWLGRTYYRSKWYNDYAVSVKSRITINPDTSKNQFSLQLNSVTPEDTAVYYCVRVDNSGWGNWGQGTLVTVSS
VL: EIVMTQSPLSSPVTLGQPASISCRSSQSLVHRDGNTYLSWLRQRPGQPPRLLIYKISNRFSGVPDRFSGSGAGTDFTLKISRVEAEDVGIYYCMQATQFPTFGGGTKVEIKR
notes: also called 胆固醇依赖性细胞溶素抗体; 抗胆固醇依赖性细胞溶素抗体
[1]
  EC50: 49.9 µM
[2]
  EC50: 44.9 µM
[3]
  EC50: 0.18 nM
[4]
  binding result: no binding (tested: 抗体1:1000稀释)
[5]
  binding result: no binding (tested: 抗体1:1000稀释)
[6]
  binding result: binds
